Measured values from the DeepSol protein solubility set.

Assay: soluble on expression in E. coli; label from the status in PepcDB or PDB records

| Sequence | soluble on expression in E. coli |
| --- | --- |
| MGSDKIHHHHHHMSVCARPERPWDERDRERFMHRNKVVSREDWFQAHKAHLAREKELTRLRERVAAERRELPWLKVRKDYVFETEQGPKKLAELFANRSQLIVYHFVFAPGSTHHCESCAFVADHMDGANRHLRHHDVSLVTISRAPLVELLPYKQRMGWTFDWVSSYASDFNFDMQVSFTDRQIASGEAVYNFETPVLTSKDLPGTTVFYKGETGDIFLTFMSRARGSEQFIGAYQYLDIAPKGRDETGPYGTFMDWVRLHDEYGNRSQRDDVCP | not soluble |
| SKQDASRNAAYTVDCEDYVHVVEFNPFENGDSGNLIAYGGNNYVVIGTCTFQEEEADVEGIQYKTLRTFHHGVRVDGIAWSPETRLDSLPPVIKFCTSAADMKIRLFTSDLQDKNEYKVLEGHTDFINGLVFDPKEGQEIASVSDDHTCRIWNLEGVQTAHFVLHSPGMSVCWHPEETFKLMVAEKNGTIRFYDLLAQQAILSLESEQVPLMSAHWCLKNTFKVGAVAGNDWLIWDITRSSYPQNKRPVHMDRACLFRWSTISENLFATTGYPGKMASQFQIHHLGHPQPILMGSVAVGSGLSWHRTLPLCVIGGDHKLLFWVTEV | soluble |
| MPPTPEVGLPLWLLAELTYRCPLQCPYCSNPLDFAAQGQELSTEQWFKVMAEAREMGAAQIGFSGGEPLVRQDLAQLIAEARRLGYYTNLITSGIGLTEARIADFKKAGLDHIQISFQASDEQVNNLLAGSKKAFAQKLEMARAVKAHGYPMVLNFVTHRHNIDKIDRIIELCIALEADFVELATCQFYGWAHLNRLGLLPTRAQLERAERITNEYRDKLKAEGNPCKLIFVTPDYYEERPKACMNGWGNLFLTITPDGTALPCH | not soluble |
| MGALAELAGDEKNGEGSRTFVFTNEGHTLGNALKTIIARYPEVDFCGYTIPHPTEQKLHFRIQSRRDRAIDILKRGLEDLEGLCDHTIVTFEKEMAEFNAMKVENLEHHHHHH | not soluble |
| MAHHHHHHMTKTNGQNAARKLVRLRCRNRWADKGWKRAHTFSARKANPFGGSSHAKGIVLEKIGVGAKQPNSAIRKCVRVQLIKNDKKIIAFVPNDGCLHFIEENDEVLVSGFGRSGHAVGDIPGVRFKIVKVSNVGLYALYRQKKEKPRN | not soluble |
| MSTTPGTPHGVTHSLMEQGWYWADADRSAVSKALSDQPDGSFIVRNASTPGDYTLSVKFAAQVKLLRIVVKDGKCGFNTDSLTHDSVVRLIEFHRNISLNIFNDALDVRLLYPVSVRRNSQNGKPFFKKGQLQQRMILSAKNDHDWRERLEMENLRAVHLAFERGAKLYDSAHQEMERAESLYHALNQSVRDNEIKLGKLNNLLEAETDVVTQIQGSQTTSEMLKGAFANNKTFVEESIRRINTELTSSKDKKKTLSGILDEIAMKRSNSKTRLCKLMELRSAVYDKMEPALCSRMAAMLDAGAEMINSEPTKVTQLLVDMELKWTPAQYLMCGTSKENAANALIHARYRIAQLDKAVGLKREPQDGIFLIRGSSSHGDKLVLSVLHGERVSHCLIEQNEEGWGFEHSNVYLTTISDFVRYYSHFSLETHADAIKTPLRTPAFDAVTSDTSKPLRNGPGQVFTALPISRKYMEKALLTDDPTKPPESPEPRPDSWDSPSPDTPSSSDSRLVHPTTLPKSIPE | not soluble |
| HTHWGYTGHDSPESWGNLSEEFRLCSTGKNQSPVNITETVSGKLPAIKVNYKPSMVDVENNGHTIQVNYPEGGNTLTVNGRTYTLKQFHFHVPSENQIKGRTFPMEAHFVHLDENKQPLVLAVLYEAGKTNGRLSSIWNVMPMTAGKVKLNQPFDASTLLPKRLKYYRFAGSLTTPPCTEGVSWLVLKTYDHIDQAQAEKFTRAVGSENNRPVQPLNARVVIE | soluble |
| MTSVTSSATSSPEPPTKVAAAMQTTTGETSISNETSFNASRETSLTALGFLDYLDEEQRAALLGEGLDISTLTWANQVTALRVLESLFNEHAYELVSAVIQHVAQEPGDNPHHFLKFSPEPSTENSWELTLDGPTVGLKVTFDPDGQITFKDAHLGLSPAEVVSVTEALDTSYSESQIKKAAEQLVGSLNPTQQAALQGSGLRGAQLTEEQKTLFLKMTSNWIDLANGDSGSEQQEEIADTFSDTYIIWNEQKDGSAFFQMKGPELDFSYKESVPENAELSARGVPNIQTSFQSPLEHHHHHH | soluble |
| MNLEPPKAECRSATRVMGGPCTPRKGPPKCKQRQTRQCKSKPPKKGVQGCGDDIPGMEGCGTDITVICPWEACNHCELHELAQYGIC | soluble |
| MSLKTITTFENKKVLVLGLARSGEAAARLLAKLGAIVTVNDGKPFDENPTAQSLLEEGIKVVCGSHPLELLDEDFCYMIKNPGIPYNNPMVKKALEKQIPVLTEVELAYLVSESQLIGITGSNGKTTTTTMIAEVLNAGGQRGLLAGNIGFPASEVVQAANDKDTLVMELSSFQLMGVKEFRPHIAVITNLMPTHLDYHGSFEDYVAAKWNIQNQMSSSDFLVLNFNQGISKELAKTTKATIVPFSTTEKVDGAYVQDKQLFYKGENIMSVDDIGVPGSHNVENALATIAVAKLAGISNQVIRETLSNFGGVKHRLQSLGKVHGISFYNDSKSTNILATQKALSGFDNTKVILIAGGLDRGNEFDELIPDITGLKHMVVLGESASRVKRAAQKAGVTYSDALDVRDAVHKAYEVAQQGDVILLSPANASWDMYKNFEVRGDEFIDTFESLRGEGHHHHHH | soluble |
| RRRRPSSSRRLRGRGAAQMACPALGLEALQPLQPEPPPEPAFSEAQKWIEQVTGRSFGDKDFRTGLENGILLCELLNAIKPGLVKKINRLPTPIAGLDNIILFLRGCKELGLKESQLFDPSDLQDTSNRVTVKSLDYSRKLKNVLVTIYWLGKAANSCTSYSGTTLNLKEFEGLLAQMRKDTDDIESPKRSIRDSGYIDCWDSERSDSLSPPRHGRDDSFDSLDSFGSRSRQTPSPDVVLRGSSDGRGSDSESDLPHRKLPDVKKDDMSARRTSHGEPKSAVPFNQYLPNKSNQTAYVPAPLRKKKAEREEYRKSWSTATSPLGGERPFRYGPRTPVSDDAESTSMFDMRCEEEAAVQPHSRARQEQLQLINNQLREEDDKWQDDLARWKSRRRSVSQDLIKKEEERKKMEKLLAGEDGTSERRKSIKTYREIVQEKERRERELHEAYKNARSQEEAEGILQQYIERFTISEAVLERLEMPKILERSHSTEPNLSSFLNDPNPMKYLRQQSLPPPKFTATVETTIARASVLDTSMSAGSGSPSKTVTPKAVPMLTPKPYSQPKNSQDVLKTFKVDGKVSVNGETVHREEEKERECPTVAPAHSLTKSQMFEGVARVHGSPLELKQDNGSIEINIKKPNSVPQELAATTEKTEPNSQEDKNDGGKSRKGNIELASSEPQHFTTTVTRCSPTVAFVEFPSSPQLKNDVSEEKDQKKPENEMSGKVELVLSQKVVKPKSPEPEATLTFPFLDKMPEANQLHLPNLNSQVDSPSSEKSPVTTPQFKFWAWDPEEERRRQEKWQQEQERLLQERYQKEQDKLKEEWEKAQKEVEEEERRYYEEERKIIEDTVVPFTVSSSSADQLSTSSSMTEGSGTMNKIDLGNCQDEKQDRRWKKSFQGDDSDLLLKTRESDRLEEKGSLTEGALAHSGNPVSKGVHEDHQLDTEAGAPHCGTNPQLAQDPSQNQQTSNPTHSSEDVKPKTLPLDKSINHQIESPSERRKKSPREHFQAGPFSPCSPTPPGQSPNRSISGKKLCSSCGLPLGKGAAMIIETLNLYFHIQCFRCGICKGQLGDAVSGTDVRIRNGLLNCNDCYMRSRSAGQPTTL | soluble |
| SGDPNSRKKQALNRLRAQLRKKKESLADQFDFKMYIAFVFKEKKKKSALFEVSEVIPVMTNNYEENILKGVRDSSYSLESSLELLQKDVVQLHAPRYQSMRRDVIGCTQEMDFILWPRNDIEKIVCLLFSRWKESDEPFRPVQAKFEFHHGDYEKQFLHVLSRKDKTGIVVNNPNQSVFLFIDRQHLQTPKNKATIFKLCSICLYLPQEQLTHWAVGTIEDHLRPYMPE | soluble |
| SLLLAKHPVISVNGNTAVLVPEETRKLAELVNAKVEINVFHHSPERVEKIKRYLEKHGIEVLAAGDAVLEGLESARRIVDSRGILIADVVLVPLEDGDRCEILKRHGKKVIAIDLNPLSRTARMADITIVDNIIRAFPKMVEMAEEMRKWERERLKEVVENYDNSKVLAEAVEGIIQYLQKVKGELLSP | soluble |
| HMLLTTSRKPSQRTRSFSQRLSRIMGWRYINRGKMSLRDVLIEARGPVAVVSERHGNPARITFLDERGGERGYILFNPSFEMKKPELADKAVRVSSCPPGSEGLCNLMGLEVDESSSRDAWSIRTDEEYAWVMELMDARGTPAGFKLLIRDFRVGE | soluble |
| MHHHHHHGSTSLYKKAGSETLYIQGMAEFPASLLILNGKSTDNLPLREAIMLLREEGMTIHVRVTWEKGDAARYVEEARKFGVATVIAGGGDGTINEVSTALIQCEGDDIPALGILPLGTANDFATSVGIPEALDKALKLAIAGDAIAIDMAQVNKQTCFINMATGGFGTRITTETPEKLKAALGSVSYIIHGLMRMDTLQPDRCEIRGENFHWQGDALVIGIGNGRQAGGGQQLCPNALINDGLLQLRIFTGDEILPALVSTLKSDEDNPNIIEGASSWFDIQAPHDITFNLDGEPLSGQNFHIEILPAALRCRLPPDCPLLRSTHHHHHH | soluble |
| MATNRSRRLRKKLCVDEFQELGFELNLDFKQELDDKAIDAFLDAFLKEAMEANGLGYVGGDDFGLVCLSKRGSVSEEQRAAVEAWLKGRSELTEVTVSPLIDVWY | not soluble |
| MGSDKIHHHHHHAAVNRVGMGSSWRAGVKVGVGVSYQFEPGWIGLKSGLYYANRGYSLGDYPRTTESATYVLKEMMTGGITQHFLQLPVMADFSWKVSKEVRMHLAVGMYAGVSVKNDTNWGSSFTMGYSKEPQALGKYVKSTGLGYSYGYGHSGYDEAENADHPFRDVNSFDWGLTTSFGIEVNNWVMNLGYDLSLGDEGGNYKIDGDNFSLYEVRSVGANYNTMSLTVGYKFKL | not soluble |
| MDPSSENNSPMVSPNDDKIVKITVSSVMQGVKQIVVEMKDKETVSILKNRIEQETEVLTNRQVLLFKGMELKDNNKTMTDCGINSDAKITMNVKMSTGIVTNPTTTDILLMMPPIFPTNQDQLRKEIKGMHTVHRKPKKMSGIDANASLWTPEKQMENEFTRNRMKTLLRRKKHAPILSGTPVDSEIGSAQTFSPVATPPGELSSPSTVSSHVSSGSEPESDAEVVTEKELKLFFDPPETIEEHKQCRRSMVLAPSSEEELLENLKKFEAERKTKCNTCFKKLSAAQQTMHCKCLRIFCDRHRHPKNHTCVIDYKQDGRNKLKKNNSKVGDGGWRKAKFES | not soluble |
| LIIFVFGYYLAFNQNKYVSYNDETKQFVHTDTSKIMENLVNRQQGIYYFGFPTCPWCLELLPILDKELEKESMNAYAVNTRGDDYTENDDELLQKFYQKYTGDESLSVPFIVAINNKKEVQVHIGTVKNHDATKTKLKRRQKE | not soluble |
| MGSDKIHHHHHHMKALALFSGGLDSMLAMKLITAQGIEVKALNINIGFGSTSDKSEIMKKRAAMVGADFEMIDVRNSYLQEVLFNPQYGYGKHFNPCIDCHAFMFKTALAMLKEENASFIITGEVLGQRPMSQRSDAMAKVKKLALDEEDLILRPMCAKNLPLTKPEREGWVDREKLEGIIGRSRKRQLELAAKFGLEDFESPGGGCLLTLDSFAKKIRDFIEFDKDMQVNDAQLLKYGRHLRLPNGAKMIIGRNELENTLLKGLKTPKYEAIEIGDLIGAYSLVDEKISEKDLELALKIALTYTKHEVGKSYELKFKNQAYTSIAFENKADINQFFIS | not soluble |
| MNVSVNIKNVTKEYRIYRTNKERMKDALIPKHKNKTFFALDDISLKAYEGDVIGLVGINGSGKSTLSNIIGGSLSPTVGKVDRNGEVSVIAISAGLSGQLTGIENIEFKMLCMGFKRKEIKAMTPKIIEFSELGEFIYQPVKKYSSGMRAKLGFSINITVNPDILVIDEALSVGDQTFAQKCLDKIYEFKEQNKTIFFVSHNLGQVRQFCTKIAWIEGGKLKDYGELDDVLPKYEAFLNDFKKKSKAEQKEFRNKLDESRFVIK | not soluble |
